Measured values taken from US20250076311A1 (Chugai, published 2025).

T1: cynomolgus monkey FcγRIIIaS extracellular domain, His-tagged (cynomolgus monkey, UniProt Q8SPW2 21-206 at identity 1.00))
T1 construct: also called cyno FcγRIIIaS; cynoFcgRIIIaS
T1 chain: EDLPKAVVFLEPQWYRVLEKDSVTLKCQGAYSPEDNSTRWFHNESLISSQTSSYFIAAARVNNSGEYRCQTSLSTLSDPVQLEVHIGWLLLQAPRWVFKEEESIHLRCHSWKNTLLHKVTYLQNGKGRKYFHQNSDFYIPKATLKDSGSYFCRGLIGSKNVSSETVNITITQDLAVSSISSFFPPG

T2: cynomolgus monkey FcγRIIb extracellular domain, His-tagged (cynomolgus monkey)
T2 construct: also called cyno FcγRIIb; cynoFcgRIIb
T2 chain: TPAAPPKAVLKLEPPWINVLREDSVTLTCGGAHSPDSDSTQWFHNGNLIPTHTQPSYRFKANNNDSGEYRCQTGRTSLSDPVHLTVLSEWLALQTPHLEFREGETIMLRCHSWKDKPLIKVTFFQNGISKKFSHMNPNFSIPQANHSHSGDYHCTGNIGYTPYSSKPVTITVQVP

T3: cynomolgus monkey FcγRIIa3 extracellular domain with C-terminal His-tag (cynomolgus monkey)
T3 construct: also called cyno FcgRIIa3; cynoFcγRIIa3
T3 chain: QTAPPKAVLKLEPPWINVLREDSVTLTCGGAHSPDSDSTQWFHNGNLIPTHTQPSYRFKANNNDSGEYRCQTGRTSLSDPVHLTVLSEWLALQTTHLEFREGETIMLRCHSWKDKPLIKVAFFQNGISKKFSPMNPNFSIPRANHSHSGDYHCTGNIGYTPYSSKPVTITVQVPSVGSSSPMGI

T4: human FcγRIIaR extracellular domain with C-terminal His-tag (human, UniProt P12318 34-217)
T4 construct: also called human FcgRIIaR; FcγRIIa (type R)
T4 chain: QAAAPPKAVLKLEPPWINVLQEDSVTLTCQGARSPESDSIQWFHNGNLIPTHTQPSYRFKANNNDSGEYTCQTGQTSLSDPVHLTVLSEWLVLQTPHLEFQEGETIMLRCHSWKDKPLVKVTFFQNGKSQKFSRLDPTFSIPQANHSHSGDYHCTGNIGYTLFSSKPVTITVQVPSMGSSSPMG

T5: cynomolgus monkey FcγRIIa2 extracellular domain with C-terminal His-tag (cynomolgus monkey)
T5 construct: also called cyno FcgRIIa2; cynoFcγRIIa2
T5 chain: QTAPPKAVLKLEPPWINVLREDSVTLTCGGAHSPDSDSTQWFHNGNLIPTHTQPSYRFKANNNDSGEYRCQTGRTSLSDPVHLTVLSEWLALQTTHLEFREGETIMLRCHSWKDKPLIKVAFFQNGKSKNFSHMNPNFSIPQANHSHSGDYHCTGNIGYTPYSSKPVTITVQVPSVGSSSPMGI


How the values were obtained:
[1] = biological target: T6, human FcγRIIIaV extracellular domain with C-terminal His-tag (human, UniProt P08637 17-208); assay: SPR (Biacore), antibody captured, FcgR analyte
T6 construct: also called human FcgRIIIaV
Procedure: (§1) The kinetic analysis of interactions between these antibodies and FcγR was carried out using BIACORE® T200 or BIACORE® 4000 (GE Healthcare). HBS-EP+ (GE Healthcare) was used as the running buffer, and the measurement temperature was set to 25° C. […] After the measurement, the antibody captured on the chip was washed off by allowing reaction with 10 mM glycine-HCl, pH1.5 and 25 mM NaOH so that the chip was regenerated and used repeatedly. The sensorgrams obtained as measurement results were analyzed by the 1:1 Langmuir binding model using the BIACORE® Evaluation Software to calculate the binding rate constant ka (L/mol/s) and dissociation rate constant kd (1/s), and the dissociation constant KD (mol/L) was calculated from these values. […] Regarding such interactions, KD values were calculated using the following 1:1 binding model described in BIACORE® T100 Software Handbook BR1006-48 Edition AE.

[2] = biological target: T1, cynomolgus monkey FcγRIIIaS …; assay: SPR (BIACORE), antibody captured, FcγR analyte, 25 C; KD of SG1 divided by KD of variant
Procedure: as §1

[3] = biological target: T2, cynomolgus monkey FcγRIIb extracellular …; assay: as above
Procedure: as §1

[4] = biological target: T3, cynomolgus monkey FcγRIIa3 …; assay: SPR (Biacore), KD of SG1 / KD of variant
[5] = biological target: T4, human FcγRIIaR extracellular domain …; assay: SPR (Biacore), antibody captured, FcgR analyte
Procedure: as §1

[6] = biological target: T5, cynomolgus monkey FcγRIIa2 …; assay: SPR (Biacore), antibody captured, FcgR as analyte
Procedure: as §1

T6 sequence (P08637 17-208 F176V): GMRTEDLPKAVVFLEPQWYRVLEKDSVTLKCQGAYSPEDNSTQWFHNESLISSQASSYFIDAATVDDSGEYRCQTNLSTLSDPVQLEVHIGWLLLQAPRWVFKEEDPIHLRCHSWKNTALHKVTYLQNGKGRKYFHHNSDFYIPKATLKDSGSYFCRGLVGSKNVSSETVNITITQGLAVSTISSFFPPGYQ

Kd [1] [nM]	KD fold (SG1 = 1) [2] [fold]	KD fold (SG1 = 1) [3] [fold]	further results	Binder
5400				M103205H795-MY265/M103202L889-SK1 (antibody, Substitutions in EU numbering on SG1; the cell prints I236T, the text gives Thr at 236 of MY201 (G236T)) heavy: QVTLKESGPVLVKPTETLTLTCTVSGIDLSHDDISWVRQAPGKGLEWVGIISYAGSTYYASWAKGRLTISKDTSKNQVVLTMTNMDPVDTATYYCARGVPAYSHGGDLWGQGTLVTVSSASTKGPSVFPLAPSSKSTSGGTAALGCLVKDYFPEPVTVSWNSGALTSGVHTFPAVLQSSGLYSLSSVVTVPSSSLGTQTYICNVNHKPSNTKVDKKVEPKSCDKTHTCPPCPAPELLTGPSVFLFPPKPKDTLMISRTPEVTCVVVDVSDEDPEVKFNWYVDGVEVHNAKTKPREEQYNSTYRVVSVLTVLHQDWLNGKEYKCKVSNKALPKPIEKTISKAKGQPREPQVYTLPPSREEMTKNQVSLTCLVKGFYPSDIAVEWESNGQPENNYKTTPPVLDSDGSFFLYSKLTVDKSRWQQGNVFSCSVMHEALHNHYTQKSLSLSP light: DIVMTQSPATLSLSPGERATLSCTSSQSVYHANWLSWFQQKPGQPPKLLIYWASTLAYGVPSRFSGSGSGTDFTLTISSLQPEDAATYYCAGGYGGGRYAFGQGTKVEIKRTVAAPSVFIFPPSDEQLKSGTASVVCLLNNFYPREAKVQWKVDNALQSGNSQESVTEQDSKDSTYSLSSTLTLSKADYEKHKVYACEVTHQGLSSPVTKSFNRGEC
	0.2	1.3		M103205H795-MY445/M103202L889-SK1 (antibody, human IgG1, kappa, name in EU numbering) heavy: QVTLKESGPVLVKPTETLTLTCTVSGIDLSHDDISWVRQAPGKGLEWVGIISYAGSTYYASWAKGRLTISKDTSKNQVVLTMTNMDPVDTATYYCARGVPAYSHGGDLWGQGTLVTVSSASTKGPSVFPLAPSSKSTSGGTAALGCLVKDYFPEPVTVSWNSGALTSGVHTFPAVLQSSGLYSLSSVVTVPSSSLGTQTYICNVNHKPSNTKVDKKVEPKSCDKTHTCPPCPAGELLTGPSVFLFPPKPKDTLMISRTPEVTCVVVDVSDEDPEVKFNWYVDGVEVHNAKTKPREEQYNSTYRVVSVLTVLHQDWLNGKEYKCKVSNKALPKPIEKTISKAKGQPREPQVYTLPPSREEMTKNQVSLTCLVKGFYPSDIAVEWESNGQPENNYKTTPPVLDSDGSFFLYSKLTVDKSRWQQGNVFSCSVMHEALHNHYTQKSLSLSP light: DIVMTQSPATLSLSPGERATLSCTSSQSVYHANWLSWFQQKPGQPPKLLIYWASTLAYGVPSRFSGSGSGTDFTLTISSLQPEDAATYYCAGGYGGGRYAFGQGTKVEIKRTVAAPSVFIFPPSDEQLKSGTASVVCLLNNFYPREAKVQWKVDNALQSGNSQESVTEQDSKDSTYSLSSTLTLSKADYEKHKVYACEVTHQGLSSPVTKSFNRGEC
1300			KD fold (SG1 = 1) [4]: 0.6 fold; Kd [5]: 21 nM	M103205H795-MY448/M103202L889-SK1 (antibody, human IgG1, kappa, Substitutions in EU numbering on SG1) heavy: QVTLKESGPVLVKPTETLTLTCTVSGIDLSHDDISWVRQAPGKGLEWVGIISYAGSTYYASWAKGRLTISKDTSKNQVVLTMTNMDPVDTATYYCARGVPAYSHGGDLWGQGTLVTVSSASTKGPSVFPLAPSSKSTSGGTAALGCLVKDYFPEPVTVSWNSGALTSGVHTFPAVLQSSGLYSLSSVVTVPSSSLGTQTYICNVNHKPSNTKVDKKVEPKSCDKTHTCPPCPAKELLTGPSVFLFPPKPKDTLMISRTPEVTCVVVDVSDEDPEVKFNWYVDGVEVHNAKTKPREEQYNSTYRVVSVLTVLHQDWLNGKEYKCKVSNKALPKPIEKTISKAKGQPREPQVYTLPPSREEMTKNQVSLTCLVKGFYPSDIAVEWESNGQPENNYKTTPPVLDSDGSFFLYSKLTVDKSRWQQGNVFSCSVMHEALHNHYTQKSLSLSP light: DIVMTQSPATLSLSPGERATLSCTSSQSVYHANWLSWFQQKPGQPPKLLIYWASTLAYGVPSRFSGSGSGTDFTLTISSLQPEDAATYYCAGGYGGGRYAFGQGTKVEIKRTVAAPSVFIFPPSDEQLKSGTASVVCLLNNFYPREAKVQWKVDNALQSGNSQESVTEQDSKDSTYSLSSTLTLSKADYEKHKVYACEVTHQGLSSPVTKSFNRGEC
			Kd [6]: 1600 nM	M103205H795-MY389 / M103202L889-SK1 (antibody, human IgG1, kappa, name in EU numbering) heavy: QVTLKESGPVLVKPTETLTLTCTVSGIDLSHDDISWVRQAPGKGLEWVGIISYAGSTYYASWAKGRLTISKDTSKNQVVLTMTNMDPVDTATYYCARGVPAYSHGGDLWGQGTLVTVSSASTKGPSVFPLAPSSKSTSGGTAALGCLVKDYFPEPVTVSWNSGALTSGVHTFPAVLQSSGLYSLSSVVTVPSSSLGTQTYICNVNHKPSNTKVDKKVEPKSCDKTHTCPPCPAPELLTGPLVFLFPPKPKDTLMISRTPEVTCVVVDVSDEDPEVKFNWYVDGVEVHNAKTKPREEQYNSTYRVVSVLTVLHQDWLNGKEYKCKVSNKALPKPIEKTISKAKGQPREPQVYTLPPSREEMTKNQVSLTCLVKGFYPSDIAVEWESNGQPENNYKTTPPVLDSDGSFFLYSKLTVDKSRWQQGNVFSCSVMHEALHNHYTQKSLSLSP light: DIVMTQSPATLSLSPGERATLSCTSSQSVYHANWLSWFQQKPGQPPKLLIYWASTLAYGVPSRFSGSGSGTDFTLTISSLQPEDAATYYCAGGYGGGRYAFGQGTKVEIKRTVAAPSVFIFPPSDEQLKSGTASVVCLLNNFYPREAKVQWKVDNALQSGNSQESVTEQDSKDSTYSLSSTLTLSKADYEKHKVYACEVTHQGLSSPVTKSFNRGEC
	0.2	2.5		M103205H795-MY446/M103202L889-SK1 (antibody, human IgG1, kappa, name in EU numbering) heavy: QVTLKESGPVLVKPTETLTLTCTVSGIDLSHDDISWVRQAPGKGLEWVGIISYAGSTYYASWAKGRLTISKDTSKNQVVLTMTNMDPVDTATYYCARGVPAYSHGGDLWGQGTLVTVSSASTKGPSVFPLAPSSKSTSGGTAALGCLVKDYFPEPVTVSWNSGALTSGVHTFPAVLQSSGLYSLSSVVTVPSSSLGTQTYICNVNHKPSNTKVDKKVEPKSCDKTHTCPPCPAHELLTGPSVFLFPPKPKDTLMISRTPEVTCVVVDVSDEDPEVKFNWYVDGVEVHNAKTKPREEQYNSTYRVVSVLTVLHQDWLNGKEYKCKVSNKALPKPIEKTISKAKGQPREPQVYTLPPSREEMTKNQVSLTCLVKGFYPSDIAVEWESNGQPENNYKTTPPVLDSDGSFFLYSKLTVDKSRWQQGNVFSCSVMHEALHNHYTQKSLSLSP light: DIVMTQSPATLSLSPGERATLSCTSSQSVYHANWLSWFQQKPGQPPKLLIYWASTLAYGVPSRFSGSGSGTDFTLTISSLQPEDAATYYCAGGYGGGRYAFGQGTKVEIKRTVAAPSVFIFPPSDEQLKSGTASVVCLLNNFYPREAKVQWKVDNALQSGNSQESVTEQDSKDSTYSLSSTLTLSKADYEKHKVYACEVTHQGLSSPVTKSFNRGEC
	0.2	0.8		M103205H795-MY448/M103202L889-SK1 (antibody, human IgG1, kappa, name in EU numbering) heavy: QVTLKESGPVLVKPTETLTLTCTVSGIDLSHDDISWVRQAPGKGLEWVGIISYAGSTYYASWAKGRLTISKDTSKNQVVLTMTNMDPVDTATYYCARGVPAYSHGGDLWGQGTLVTVSSASTKGPSVFPLAPSSKSTSGGTAALGCLVKDYFPEPVTVSWNSGALTSGVHTFPAVLQSSGLYSLSSVVTVPSSSLGTQTYICNVNHKPSNTKVDKKVEPKSCDKTHTCPPCPAKELLTGPSVFLFPPKPKDTLMISRTPEVTCVVVDVSDEDPEVKFNWYVDGVEVHNAKTKPREEQYNSTYRVVSVLTVLHQDWLNGKEYKCKVSNKALPKPIEKTISKAKGQPREPQVYTLPPSREEMTKNQVSLTCLVKGFYPSDIAVEWESNGQPENNYKTTPPVLDSDGSFFLYSKLTVDKSRWQQGNVFSCSVMHEALHNHYTQKSLSLSP light: DIVMTQSPATLSLSPGERATLSCTSSQSVYHANWLSWFQQKPGQPPKLLIYWASTLAYGVPSRFSGSGSGTDFTLTISSLQPEDAATYYCAGGYGGGRYAFGQGTKVEIKRTVAAPSVFIFPPSDEQLKSGTASVVCLLNNFYPREAKVQWKVDNALQSGNSQESVTEQDSKDSTYSLSSTLTLSKADYEKHKVYACEVTHQGLSSPVTKSFNRGEC
